Test results taken from PMC12639820, “Antifactor H Autoantibody Characterization in Atypical Hemolytic Uremic Syndrome” (Kidney International Reports, 2025).

Molecular target: T1, purified human C3b (human, UniProt P01024 23-667; P01024 749-1663)
T1 construct: C3b is the two-chain cleavage product of C3; source: purified human C3b
Test: ELISA; C3b (5 ug/ml) or C3d (5 ug/ml) coated on wells; purified biotinylated human FH (6 ug/ml) preincubated in solution with different amounts of total IgG from patient serum (kAb) or NHS
Conditions: both partners purified

T1 sequence (P01024 23-667, chain 1 of 2): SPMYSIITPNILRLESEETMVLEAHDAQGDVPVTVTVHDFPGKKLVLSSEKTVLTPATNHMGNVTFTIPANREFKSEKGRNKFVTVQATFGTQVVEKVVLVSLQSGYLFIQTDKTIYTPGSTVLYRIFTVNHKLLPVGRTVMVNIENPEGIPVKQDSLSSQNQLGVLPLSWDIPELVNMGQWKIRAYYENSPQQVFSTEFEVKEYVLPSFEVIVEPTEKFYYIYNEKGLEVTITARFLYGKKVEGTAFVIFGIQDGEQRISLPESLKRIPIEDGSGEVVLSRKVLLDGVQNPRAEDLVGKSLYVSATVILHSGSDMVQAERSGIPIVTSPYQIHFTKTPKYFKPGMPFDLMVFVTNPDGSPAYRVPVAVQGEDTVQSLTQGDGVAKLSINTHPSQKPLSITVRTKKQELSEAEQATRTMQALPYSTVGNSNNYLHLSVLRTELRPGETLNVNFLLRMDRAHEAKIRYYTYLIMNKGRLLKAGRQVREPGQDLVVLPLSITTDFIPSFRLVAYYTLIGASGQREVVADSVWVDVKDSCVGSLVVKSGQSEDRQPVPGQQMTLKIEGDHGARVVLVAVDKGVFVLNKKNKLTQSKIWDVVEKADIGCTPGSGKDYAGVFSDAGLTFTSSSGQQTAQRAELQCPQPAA
T1 sequence (P01024 749-1663, chain 2 of 2): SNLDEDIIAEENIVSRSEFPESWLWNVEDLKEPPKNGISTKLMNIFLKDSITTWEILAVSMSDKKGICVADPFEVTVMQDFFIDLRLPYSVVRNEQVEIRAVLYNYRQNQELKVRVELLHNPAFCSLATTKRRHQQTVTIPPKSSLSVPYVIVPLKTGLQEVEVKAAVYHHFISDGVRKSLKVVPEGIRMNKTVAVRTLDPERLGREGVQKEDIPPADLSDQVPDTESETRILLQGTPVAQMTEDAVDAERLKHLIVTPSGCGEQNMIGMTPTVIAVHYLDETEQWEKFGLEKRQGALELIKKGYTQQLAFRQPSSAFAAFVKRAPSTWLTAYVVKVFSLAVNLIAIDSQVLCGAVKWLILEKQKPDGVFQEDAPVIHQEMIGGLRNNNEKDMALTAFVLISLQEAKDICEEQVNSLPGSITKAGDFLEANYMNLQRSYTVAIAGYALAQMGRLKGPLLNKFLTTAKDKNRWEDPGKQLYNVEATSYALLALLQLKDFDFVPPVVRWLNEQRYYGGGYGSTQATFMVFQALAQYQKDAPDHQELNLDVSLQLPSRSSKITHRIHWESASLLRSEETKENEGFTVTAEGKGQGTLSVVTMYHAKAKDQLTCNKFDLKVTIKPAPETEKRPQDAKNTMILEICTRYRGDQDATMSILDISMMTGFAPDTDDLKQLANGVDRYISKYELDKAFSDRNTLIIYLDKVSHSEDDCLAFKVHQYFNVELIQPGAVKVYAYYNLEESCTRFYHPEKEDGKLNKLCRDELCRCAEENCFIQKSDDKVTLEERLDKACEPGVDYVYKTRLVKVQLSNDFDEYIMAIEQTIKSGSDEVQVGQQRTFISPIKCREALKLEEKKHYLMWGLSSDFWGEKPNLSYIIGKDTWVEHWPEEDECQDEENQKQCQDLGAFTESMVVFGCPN

B1: purified biotinylated human factor H (natural protein, UniProt P08603 19-1231, looked up)
chain: EDCNELPPRRNTEILTGSWSDQTYPEGTQAIYKCRPGYRSLGNVIMVCRKGEWVALNPLRKCQKRPCGHPGDTPFGTFTLTGGNVFEYGVKAVYTCNEGYQLLGEINYRECDTDGWTNDIPICEVVKCLPVTAPENGKIVSSAMEPDREYHFGQAVRFVCNSGYKIEGDEEMHCSDDGFWSKEKPKCVEISCKSPDVINGSPISQKIIYKENERFQYKCNMGYEYSERGDAVCTESGWRPLPSCEEKSCDNPYIPNGDYSPLRIKHRTGDEITYQCRNGFYPATRGNTAKCTSTGWIPAPRCTLKPCDYPDIKHGGLYHENMRRPYFPVAVGKYYSYYCDEHFETPSGSYWDHIHCTQDGWSPAVPCLRKCYFPYLENGYNQNYGRKFVQGKSIDVACHPGYALPKAQTTVTCMENGWSPTPRCIRVKTCSKSSIDIENGFISESQYTYALKEKAKYQCKLGYVTADGETSGSITCGKDGWSAQPTCIKSCDIPVFMNARTKNDFTWFKLNDTLDYECHDGYESNTGSTTGSIVCGYNGWSDLPICYERECELPKIDVHLVPDRKKDQYKVGEVLKFSCKPGFTIVGPNSVQCYHFGLSPDLPICKEQVQSCGPPPELLNGNVKEKTKEEYGHSEVVEYYCNPRFLMKGPNKIQCVDGEWTTLPVCIVEESTCGDIPELEHGWAQLSSPPYYYGDSVEFNCSESFTMIGHRSITCIHGVWTQLPQCVAIDKLKKCKSSNLIILEEHLKNKKEFDHNSNIRYRCRGKEGWIHTVCINGRWDPEVNCSMAQIQLCPPPPQIPNSHNMTTTLNYRDGEKVSVLCQENYLIQEGEEITCKDGRWQSIPLCVEKIPCSQPPQIEHGTINSSRSSQESYAHGTKLSYTCEGGFRISEENETTCYMGKWSSPPQCEGLPCKSPPEISHGVVAHMSDSYQYGEEVTYKCFEGFGIDGPAIAKCLGEKWSHPPSCIKTDCLSLPSFENAIPMGEKKDVYKAGEQVTYTCATYYKMDGASNVTCINSRWTGRPTCRDTSCVNPPTVQNAYIVSRQMSKYPSGERVRYQCRSPYEMFGDEEVMCLNGNWTEPPQCKDSTGKCGPPPPIDNGDITSFPLSVYAPASSVEYQCQNLYQLEGNKRITCRNGQWSEPPKCLHPCVISREIMENYNIALRWTAKQKLYSRTGESVEFVCKRGYRLSSRSHTLRTTCWDGKLEYPTCAKR
modifications: biotin (biotinylated; sites not stated)
notes: complement factor H, human, 155 kDa serum protein of 20 CCP domains; purified human protein; also called FH; source: purified human FH, biotinylated
binding result: binds
